We go through seven molecules from US20200317768A1 (published 2020).

Assay [1] has as its target T1, cynomolgus monkey FcγRIIIaS extracellular domain, His-tagged (cynomolgus monkey, UniProt Q8SPW2 21-206 at identity 1.00)).
T1 construct: also called cyno FcγRIIIaS; cynoFcγRIIIaS; not shown: C-terminal His-tag
T1 chain: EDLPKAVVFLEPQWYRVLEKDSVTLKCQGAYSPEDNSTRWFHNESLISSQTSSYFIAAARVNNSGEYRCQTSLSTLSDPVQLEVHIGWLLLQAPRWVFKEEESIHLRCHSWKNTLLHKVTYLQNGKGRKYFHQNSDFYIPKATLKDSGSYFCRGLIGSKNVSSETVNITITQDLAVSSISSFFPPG
As to the kind of experiment: SPR (BIACORE), captured antibody, FcgR as analyte. On the procedure:
(§1) The kinetic analysis of interactions between these antibodies and FcγR was carried out using BIACORE® T200 or BIACORE® 4000 (GE Healthcare). HBS-EP+ (GE Healthcare) was used as the running buffer, and the measurement temperature was set to 25° C. A chip produced by immobilizing Protein A. Protein A/G or mouse anti-human IgG kappa light chain (BD Biosciences) onto a Series S Sensor Chip CM4 or CM5 (GE Healthcare) by the amine-coupling method was used. […] After the measurement, the antibody captured on the chip was washed off by allowing reaction with 10 mM glycine-HCl, pH1.5 and 25 mM NaOH so that the chip was regenerated and used repeatedly. The sensorgrams obtained as measurement results were analyzed by the 1:1 Langmuir binding model using the BIACORE® Evaluation Software to calculate the binding rate constant ka (L/mol/s) and dissociation rate constant kd (l/s), and the dissociation constant KD (mol/L) was calculated from these values. […] Regarding such interactions, KD values were calculated using the following 1:1 binding model described in BIACORE® T100 Software Handbook BR1006-48 Edition AE.
For orientation: Surface plasmon resonance follows binding to a sensor surface in real time, without labels.

Assay [2] concerns the target T2, cynomolgus monkey FcγRIIa2 extracellular domain, His-tagged (cynomolgus monkey).
T2 construct: also called cyno FcγRIIa2; cynoFcgRIIa2; not shown: C-terminal His-tag
T2 chain: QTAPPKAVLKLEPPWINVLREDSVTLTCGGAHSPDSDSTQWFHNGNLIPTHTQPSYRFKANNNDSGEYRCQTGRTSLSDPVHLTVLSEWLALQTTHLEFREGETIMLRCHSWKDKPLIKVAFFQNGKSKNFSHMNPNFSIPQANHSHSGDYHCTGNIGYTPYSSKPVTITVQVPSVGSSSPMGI
As to the kind of experiment: SPR (BIACORE), captured antibody, FcgR as analyte. On the procedure:
as §1

The target of assay [3] is T3, human FcγRIIaR extracellular domain, His-tagged (human, UniProt P12318 34-217).
T3 construct: also called human FcγRIIa (type R); FcgRIIaR; not shown: C-terminal His-tag
T3 chain: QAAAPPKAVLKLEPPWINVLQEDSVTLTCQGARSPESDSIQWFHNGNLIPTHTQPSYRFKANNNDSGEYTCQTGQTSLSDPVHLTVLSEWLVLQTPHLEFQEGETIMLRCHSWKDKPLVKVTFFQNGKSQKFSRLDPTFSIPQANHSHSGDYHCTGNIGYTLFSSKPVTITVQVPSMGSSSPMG
As to the kind of experiment: SPR (BIACORE), captured antibody, FcgR as analyte. On the procedure: as §1

Assay [4] concerns the target T4, human FcγRIIIaV extracellular domain, His-tagged (human, UniProt P08637 17-208).
T4 construct: also called FcgRIIIaV; not shown: C-terminal His-tag
As to the kind of experiment: SPR (BIACORE), captured antibody, FcgR as analyte. As for the experimental part:
as §1

Assay [5] deals with T5, cynomolgus monkey FcγRIIa3 extracellular domain, His-tagged (cynomolgus monkey).
T5 construct: also called cyno FcγRIIa3; cynoFcgRIIa3; not shown: C-terminal His-tag
T5 chain: T2 chain with K127I, N130K, H133P, Q142R
As to the kind of experiment: SPR (BIACORE), captured antibody, FcgR as analyte. On the procedure:
as §1

For assay [6], the target named is T6, human FcγRIIb extracellular domain, His-tagged (human, UniProt P31994 43-217).
T6 construct: also called FcgRIIb (human); not shown: C-terminal His-tag
T6 sequence: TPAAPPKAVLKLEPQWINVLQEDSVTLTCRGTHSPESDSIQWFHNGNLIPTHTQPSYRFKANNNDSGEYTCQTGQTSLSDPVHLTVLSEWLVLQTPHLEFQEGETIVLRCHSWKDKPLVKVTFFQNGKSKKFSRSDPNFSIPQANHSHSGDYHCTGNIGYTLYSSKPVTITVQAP
As to the kind of experiment: SPR (BIACORE), captured antibody, FcgR as analyte. As for the experimental part:
as §1

Assay [7] addresses T7, cynomolgus monkey FcγRIIb extracellular domain, His-tagged (cynomolgus monkey).
T7 construct: also called cyno FcγRIIb; cynoFcγRIIb; not shown: C-terminal His-tag
T7 chain: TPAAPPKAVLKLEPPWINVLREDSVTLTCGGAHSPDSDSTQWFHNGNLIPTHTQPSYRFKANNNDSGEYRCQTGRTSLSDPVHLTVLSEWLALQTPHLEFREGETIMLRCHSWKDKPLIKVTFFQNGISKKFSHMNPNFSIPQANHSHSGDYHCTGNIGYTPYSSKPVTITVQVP
As to the kind of experiment: SPR (BIACORE), captured antibody, FcgR as analyte. On the procedure:
as §1

Assay [8] deals with T8, human FcγRIIaH extracellular domain, His-tagged (human, UniProt P12318 34-217).
T8 construct: also called human FcγRIIa (type H); FcgRIIaH; not shown: C-terminal His-tag
T8 sequence: T3 chain with R134H
As to the kind of experiment: SPR (BIACORE), captured antibody, FcgR as analyte. As for the experimental part: as §1

Assay [9] concerns the target T9, cynomolgus monkey FcγRIIa1 extracellular domain, His-tagged (cynomolgus monkey).
T9 construct: also called cyno FcγRIIa1; cynoFcgRIIa1; not shown: C-terminal His-tag
T9 chain: T2 chain with T95P, A121T, K127I, S128A, N130K, N135D, Q142R
As to the kind of experiment: SPR (BIACORE), captured antibody, FcgR as analyte. On the procedure: as §1

Assay [10] has as its target T10, human FcγRIIb extracellular domain, C-terminal His-tag (human, UniProt P31994 43-217).
T10 construct: also called FcgRIIb (human)
T10 sequence: T6 sequence
As to the kind of experiment: SPR 25C; FcgR bound per captured antibody, relative to parent B3. On the procedure:
These Fc variants are referred to as B3 variants. B3 variants were expressed and the binding of protein-A purified antibodies to each FcγR (FcγRIIa type H. FcγRIIa type R, FcγRIIb, and FcγRIIIaF) was comprehensively evaluated as follows. Analysis of interaction between each altered antibody and the Fcγ receptor prepared as mentioned above was carried out using BIACORE® T100 (GE Healthcare), BIACORE® T200 (GE Healthcare), BIACORE® A100, or BIACORE® 4000. HBS-EP+(GE Healthcare) was used as the running buffer, and the measurement temperature was set to 25° C. Chips produced by immobilizing Protein A (Thermo Scientific), Protein A/G (Thermo Scientific), or Protein L (ACTIGEN or BioVision) by the amine coupling method to a Series S sensor Chip CM5 or CM4 (GE Healthcare) were used. After capturing of antibodies of interest onto these sensor chips, an Fcγ receptor diluted with the running buffer was allowed to interact, the amount bound to an antibody was measured. However, since the amount of Fcγ receptor bound depends on the amount of the captured antibodies, the amount of Fcγ receptor bound was divided by the amount of each antibody captured to obtain corrected values, and these values were compared. Furthermore, antibodies captured onto the chips were washed by 10 mM glycine-HCl pH1.5, and the chips were regenerated and used repeatedly. […] The value obtained by multiplying this value by 100 was used as an indicator of the relative FcγR-binding activity of each variant.

Residue numbers refer to the chain shown, from its start. Names may count otherwise.

T4 sequence (P08637 17-208 F176V): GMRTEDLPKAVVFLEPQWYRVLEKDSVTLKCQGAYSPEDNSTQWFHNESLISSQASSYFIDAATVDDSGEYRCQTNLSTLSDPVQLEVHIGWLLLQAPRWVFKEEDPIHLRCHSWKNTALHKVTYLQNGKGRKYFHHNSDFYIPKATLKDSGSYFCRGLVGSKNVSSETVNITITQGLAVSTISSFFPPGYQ

B1: M103205H795-MY453/M103202L889-SK1 (antibody, human IgG1, kappa)
heavy: QVTLKESGPVLVKPTETLTLTCTVSGIDLSHDDISWVRQAPGKGLEWVGIISYAGSTYYASWAKGRLTISKDTSKNQVVLTMTNMDPVDTATYYCARGVPAYSHGGDLWGQGTLVTVSSASTKGPSVFPLAPSSKSTSGGTAALGCLVKDYFPEPVTVSWNSGALTSGVHTFPAVLQSSGLYSLSSVVTVPSSSLGTQTYICNVNHKPSNTKVDKKVEPKSCDKTHTCPPCPARELLTGPSVFLFPPKPKDTLMISRTPEVTCVVVDVSDEDPEVKFNWYVDGVEVHNAKTKPREEQYNSTYRVVSVLTVLHQDWLNGKEYKCKVSNKALPKPIEKTISKAKGQPREPQVYTLPPSREEMTKNQVSLTCLVKGFYPSDIAVEWESNGQPENNYKTTPPVLDSDGSFFLYSKLTVDKSRWQQGNVFSCSVMHEALHNHYTQKSLSLSP
light: DIVMTQSPATLSLSPGERATLSCTSSQSVYHANWLSWFQQKPGQPPKLLIYWASTLAYGVPSRFSGSGSGTDFTLTISSLQPEDAATYYCAGGYGGGRYAFGQGTKVEIKRTVAAPSVFIFPPSDEQLKSGTASVVCLLNNFYPREAKVQWKVDNALQSGNSQESVTEQDSKDSTYSLSSTLTLSKADYEKHKVYACEVTHQGLSSPVTKSFNRGEC
notes: copies: 2 + 2
The term Kd denotes the free concentration of one partner at which half of the binding sites on the other are occupied at equilibrium, for simple one-to-one binding. Consider B1, for which the Kd in [1] worked out at 6500 nM; in [2], 9900 nM; in assay [3] it was 1600 nM; in [4], 14000 nM; in [5], 21000 nM; in assay [6], 6500 nM. In addition, the values for the Kd in assay [7], in assay [8] and in assay [9] were 2100 nM, 750 nM and 8200 nM, respectively.

B2: M103205H795-MY457/M103202L889-SK1 (antibody, human IgG1, kappa)
heavy: B1 heavy with R234W
light: B1 light
notes: copies: 2 + 2
On to B2, for which the Kd in assay [1] is 1100 nM; in assay [2], 840 nM; in assay [3], 73 nM; in [4] it was 3500 nM; in [5], 1200 nM; in assay [6] it was 330 nM. Further, the figures for the Kd in [7], in assay [8] and in assay [9] were 200 nM, 120 nM and 830 nM, respectively.

B3: M103205H795-MY454/M103202L889-SK1 (antibody, human IgG1, kappa)
heavy: B1 heavy with R234S
light: B1 light
notes: copies: 2 + 2
Regarding B3, the Kd in assay [1] was 2500 nM; in assay [2] it was 3100 nM; in assay [3], 760 nM; in assay [4], 5900 nM; in assay [5], 7600 nM; in assay [6] it was 3100 nM. Moreover, the Kd came out at 1000 nM in [7], 410 nM in assay [8] and 3800 nM in assay [9].

B4: M103205H795-MY456/M103202L889-SK1 (antibody, human IgG1, kappa)
heavy: B1 heavy with R234V
light: B1 light
notes: copies: 2 + 2
Take B4: the dissociation constant Kd in [1] is 2000 nM; in assay [2] it was 1700 nM; in assay [3], 290 nM; in assay [4], 5300 nM; in assay [5] it was 3400 nM; in assay [6] it was 1100 nM. Besides, the dissociation constant Kd in assay [7] is 520 nM; in assay [8] it was 170 nM; in assay [9], 1900 nM.

B5: M103205H795-MY458/M103202L889-SK1 (antibody, human IgG1, kappa)
heavy: B1 heavy with R234Y
light: B1 light
notes: copies: 2 + 2
Turning to B5, the Kd came to 190 nM in assay [1]; 1600 nM in assay [2]; 170 nM in assay [3]; 5300 nM in assay [4]; 3000 nM in assay [5]; 990 nM in assay [6]. Also, the values for the Kd in assay [7], in [8] and in [9] were 430 nM, 160 nM and 1800 nM, respectively.

B6: M103205H795-MY455/M103202L889-SK1 (antibody, human IgG1, kappa)
heavy: B1 heavy with R234T
light: B1 light
notes: copies: 2 + 2
B6: the Kd in assay [1] is 2800 nM; in assay [2] it was 1900 nM; in assay [3], 460 nM; in [4] it was 6800 nM; in assay [5], 5400 nM; in [6] it was 2200 nM. The Kd in assay [7] is 920 nM; in [8] it was 310 nM; in [9] it was 3100 nM.

B7: GpH7-B3 variant V266F/GpL16-k0 (antibody, human IgG1, kappa)
heavy: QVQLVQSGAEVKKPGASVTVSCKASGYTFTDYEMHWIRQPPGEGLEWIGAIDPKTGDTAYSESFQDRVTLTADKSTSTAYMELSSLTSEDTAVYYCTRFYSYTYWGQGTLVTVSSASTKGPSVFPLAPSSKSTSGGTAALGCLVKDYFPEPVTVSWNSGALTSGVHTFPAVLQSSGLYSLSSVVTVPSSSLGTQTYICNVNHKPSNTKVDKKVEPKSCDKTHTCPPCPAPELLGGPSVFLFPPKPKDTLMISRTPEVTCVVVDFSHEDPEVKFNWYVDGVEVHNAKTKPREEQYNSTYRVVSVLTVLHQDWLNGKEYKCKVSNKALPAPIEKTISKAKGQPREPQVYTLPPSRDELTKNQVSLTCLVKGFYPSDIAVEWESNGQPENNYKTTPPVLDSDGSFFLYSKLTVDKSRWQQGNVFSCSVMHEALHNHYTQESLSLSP
light: DIVMTQSPLSLPVTPGEPASISCQASESLVHSNRNTYLHWYLQKPGQSPQLLIYKVSNRFSGVPDRFSGSGSGTDFTLKISRVEAEDVGVYYCSQNTHVPPTFGQGTKVEIERTVAAPSVFIFPPSDEQLKSGTASVVCLLNNFYPREAKVQWKVDNALQSGNSQESVTEQDSKDSTYSLSSTLTLSKADYEKHKVYACEVTHQGLSSPVTKSFNRGEC
On to B7, for which, in [10], the “Binding to human FcgRs (parent B3 = 100)” value was found to be 88 parent B3 = 100.
